# Laboratory results: patent US20130209481A1 (University of California, published 2013)
# Changes are numbered by the printed parent chain.
# B1: anti-EphA2 human scFv 2D6 (scFv, V domains shown)
# VH: QVQLQESGGGLVQPGGSLRLSCAASGFTFSSYAMSWVRQAPGKGLDWVSIIYNGDNTYYADSVKGRFTISRDNSKNSLYLQMNSLRAEDTAVYYCARWSGTSYDYWGQGTLVTVSS
# VL: SELTQDPAVSVALGQTVRITCQGDSLRSYYASWYQQKPGQAPLLVIYGENNRPSGIPDRFSGSSSGNTASLTITGAQAEDEADYYCHSRDSSGTHLRVFGGGTKVTVLG
# notes: scFv; soluble scFv with C-terminal (His)6 tag (pUC119mycHis) in the immunoprecipitation; also called anti-EphA2 phage antibody 2D6; PhAb-EphA2
# B2: anti-EphA2 human scFv D2-1A7 (scFv, V domains shown)
# VH: QVQLQQSGGGVVQPGRSLRLSCAASGFTFSSYAMHWVRQAPGKGLEWVAVISYDGSNKYYADSVKGRFTISRDNSKNTLYLQMNSLRAEDTAVYYCARASVGATGPFDIWGQGTMVTVSS
# VL: B1 VL with R18S, H87N, R97T, V105L
# notes: soluble scFv with C-terminal (His)6 tag in the immunoprecipitation; also called anti-EphA2 phage D2-1A7
# B3: anti-EphA2 human scFv D2-1B1 (scFv, V domains shown)
# VH: QVQLQESGGGVVQPGRSLRLSCAASGFTFSSYGMHWVRQAPGKGLEWVAVISYDGSNKYYADSVKGRFTISRDNSKNTLYLQMNSLRAEDTAVYYCAKVIAGGAYYGSADYWGQGTLVTVSS
# VL: B1 VL with R18K, S28T, L43V, N51S, V105L
# B4: E8H7 (scFv)
# scFv: QVQLQESGGGLVQPGGSLRLSCSASGFTFSSYAMHWVRQAPGKGLEYVSAISSNGGSTYYADSVKGRFTISRDNSKNTLYLQMSSLRAEDTAVYYCVARLEWLPLAWDYWGQGTLVTVSSGGGGSGGGGSGGGGSSELTQDPAVSVALGQTVRITCQGDSLRSYYASWYQQKPGQAPVLVIYGKNNRPSGIPDRFSGSSSGNTASLTITGAQAEDEADYYCNSRDSSGNHKVFGGGTKLTVLG
# notes: also called fd phage antibody E8H7
# B5: anti-CD44 human scFv F2-1A6 (scFv, V domains shown)
# VH: QVQLVQSGAEVKKPGESLKISCKGSGYSFTSYWIGWVRQMPGKGLEWMGIIYPGDSDTRYSPSFQGQVTISADKSISTAYLQWSSLKASDTAMYYCARRLHGPFYFDYWGQGTLVTVSS
# VL: SELTQDPAVSVALGQTVRITCQGDSLRSYYASWYQQKPGQAPLLVIYGKNIRPSGIPDRFSGSSSGNTASLTITGAQAEDEADYYCNSRDSSGNHVVFGGGTKLTVLG
# notes: soluble scFv with C-terminal (His)6 tag in the immunoprecipitation; also called anti-CD44 phage F2-1A6
# B6: recombinant mouse Ephrin A1 with human Fc fusion protein (R&D Systems) (Fc fusion, UniProt P52793 19-182, looked up)
# chain: DRHIVFWNSSNPKFREEDYTVHVQLNDYLDIICPHYEDDSVADAAMERYTLYMVEHQEYVACQPQSKDQVRWNCNRPSAKHGPEKLSEKFQRFTPFILGKEFKEGHSYYYISKPIYHQESQCLKLKVTVNGKITHNPQAHVNPQEKRLQADDPEVQVLHSIGYS
# notes: Bought reagent; also called rEphrinA1-human Fc fusion protein; not shown: human Fc
# B7: anti-EphA2 human scFv D2-1A9 (scFv, V domains shown)
# VH: QVQLVESGGGLIQPGGSLKLSCAASGFTVSNSYMSWVRQAPGKGLEWVAVIYSAGNTYYADSVKGRFTISRDTSNNTVHLQMNSLRPEDTAVYYCAREGSFGYDYRGQGTLVTVSS
# VL: DIVMTQSPGTLSLSPGERATLSCRASQSVSSSFLGWYQQKPGQAPRLLIYGASSRATGIPDRFSGSGSGTDFTLTISRLEPEDFAVYYCQQYGISPLTFGGGTKVEIKR
# notes: also called anti-EphA2 phage D2-1A9
# B8: E8F11 (scFv)
# scFv: QVQLQQSGGGLVQPGGSLRLSCAASGFTFSSYAMSWVRQAPVKGLEWVSAISGSGGSTYYADSVKGRFTISRDNSKNTLYLQMNSLRIEDTAVYYCGRHLSSGSSVDYWGQGTLVTVSSGGGGSGGGGSGGGGSSELTQPPSASGSPGQSVTISCTGTSSDVGGYNYVSWYQQRPGYAPKLMIYDVSNRPSGVSNRFSGSKSGNSASLDISGLQSEDEADYYCAAWDDSLREFLFGTGTKVTVLG
# notes: also called fd phage antibody E8F11
# B9: A3H9 (scFv)
# scFv: QVLLVESGGGVVQAGASLRVSCAASGFSLTSYGMHWVRQAPGKGLEWVAFISSDGSDKYYVDSVKGRFTISRDTSKNMMYLQMNSLTTEDTAVYYCAKDWGSNWYLFDYWGQGTLVTVSSGGGGSGGGGSGGGGSQSVLTQPPSASETPGQRVTISCSGSSSNIGANTVHWYQQFPGTAPKLLIYSYSQRPSGVPDRFSDSKSGTSASLAISGLQSEDEADYYCAAWDDILNGWVFGGGTKVTVLG
# notes: also called fd phage antibody A3H9
# B10: 1A12 (scFv)
# scFv: QVQLQESGGGLVQPGGFLRLSCAASGFTFSSYGMHWVRQTPGKGLEWVSYISSSSSYTNYADSVKGRFTISRDNSKNTLYLQMNSLRAEDTAVYYCARDNWYFDLWGRGTLVTVSSGGGGSGGGGSGGGGSDVVMTQSPSTLSASVGDRVSITCRASESISRWLAWYQQKPGKAPKALIYKASSLESGVPSRFSGSGSATEFTLTINSLQPDDFATYYCQQYSSYPLTFGQGTKVDIKR
# notes: also called phagemid antibody 1A12
# Legend:
# [1] = target: T1, yeast displayed EphA2 extracellular domain (EphA2 ECD, aa 25-534) (Homo sapiens (Human), UniProt P29317 25-534); assay: phage recovery: 10^11 phage with 10^8 yeast cells, elution and titration
# T1 construct: also called Y-EphA2; Y-EphA2 ECD
# [2] = target: T2, yeast displayed CD44 link domain (CD44 ECD domain 1, aa 21-169) (Homo sapiens (Human), UniProt P16070 21-169); assay: yeast displayed antigen incubated with 10^9 phage, titer of bound phage (mismatched pair)
# T2 construct: also called Y-CD44 D1; Y-CD44 ECD D1
# [3] = target: T1, yeast displayed EphA2 extracellular …; assay: yeast displayed antigen incubated with 10^9 phage, titer of bound phage
# [4] = target: T1, yeast displayed EphA2 extracellular …; assay: flow cytometry of monoclonal phage antibody on yeast displayed EphA2 ECD
# [5] = target: T3, EphA2 on the surface of MDAMB231 cells (native EphA2) (human, UniProt P29317 24-976); assay: flow cytometry of phage antibody on MDAMB231 cells
# T3 construct: whole, on cells; from NP40 cell extracts in the immunoprecipitation; also called native antigen; receptor from cell extracts of MDAMB231 cells
# [6] = target: T2, yeast displayed CD44 link domain (CD44 …); assay: fd phage antibody selected on yeast displayed antigen; screened by flow cytometry as in Examples 4 and 5
# [7] = target: T2, yeast displayed CD44 link domain (CD44 …); assay: flow cytometry of monoclonal phage antibody on yeast displayed CD44 domain 1
# [8] = target: T3, EphA2 on the surface of MDAMB231 cells …; assay: flow cytometry competition on MDAMB231 cells; competitors: phage antibodies D2-1A7 and D2-1A9
# [9] = target: T1, yeast displayed EphA2 extracellular …; assay: fd phage antibody selected on yeast displayed antigen; screened by flow cytometry as in Examples 4 and 5
# [10] = target: T1, yeast displayed EphA2 extracellular …; assay: phagemid antibody selected on yeast displayed antigen; screened by flow cytometry as in Examples 4 and 5
# T3 sequence (P29317 24-976): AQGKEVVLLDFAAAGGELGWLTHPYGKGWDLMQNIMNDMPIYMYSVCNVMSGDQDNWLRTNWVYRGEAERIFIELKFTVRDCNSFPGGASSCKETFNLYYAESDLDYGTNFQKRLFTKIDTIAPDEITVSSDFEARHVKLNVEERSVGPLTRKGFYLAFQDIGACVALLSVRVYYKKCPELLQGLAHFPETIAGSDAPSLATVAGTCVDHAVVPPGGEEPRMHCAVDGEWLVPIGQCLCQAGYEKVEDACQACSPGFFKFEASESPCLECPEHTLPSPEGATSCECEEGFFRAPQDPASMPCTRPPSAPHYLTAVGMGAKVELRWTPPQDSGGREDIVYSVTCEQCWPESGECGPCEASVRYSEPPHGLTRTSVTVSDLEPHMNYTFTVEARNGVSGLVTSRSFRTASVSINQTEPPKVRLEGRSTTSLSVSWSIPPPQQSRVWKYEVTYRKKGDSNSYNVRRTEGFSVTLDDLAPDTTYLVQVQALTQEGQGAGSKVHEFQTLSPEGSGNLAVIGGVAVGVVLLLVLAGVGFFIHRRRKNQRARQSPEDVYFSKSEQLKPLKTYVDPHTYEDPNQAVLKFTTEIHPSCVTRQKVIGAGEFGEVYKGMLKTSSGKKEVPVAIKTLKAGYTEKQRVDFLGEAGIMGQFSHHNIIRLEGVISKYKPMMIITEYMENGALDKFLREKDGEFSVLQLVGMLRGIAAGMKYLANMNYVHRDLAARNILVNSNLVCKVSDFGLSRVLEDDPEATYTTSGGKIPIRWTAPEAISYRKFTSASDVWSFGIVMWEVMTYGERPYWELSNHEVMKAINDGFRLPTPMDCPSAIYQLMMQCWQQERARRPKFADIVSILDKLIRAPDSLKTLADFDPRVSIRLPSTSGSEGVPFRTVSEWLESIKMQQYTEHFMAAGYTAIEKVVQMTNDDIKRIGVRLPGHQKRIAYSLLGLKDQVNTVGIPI
# T1 sequence (P29317 25-534 limits assumed): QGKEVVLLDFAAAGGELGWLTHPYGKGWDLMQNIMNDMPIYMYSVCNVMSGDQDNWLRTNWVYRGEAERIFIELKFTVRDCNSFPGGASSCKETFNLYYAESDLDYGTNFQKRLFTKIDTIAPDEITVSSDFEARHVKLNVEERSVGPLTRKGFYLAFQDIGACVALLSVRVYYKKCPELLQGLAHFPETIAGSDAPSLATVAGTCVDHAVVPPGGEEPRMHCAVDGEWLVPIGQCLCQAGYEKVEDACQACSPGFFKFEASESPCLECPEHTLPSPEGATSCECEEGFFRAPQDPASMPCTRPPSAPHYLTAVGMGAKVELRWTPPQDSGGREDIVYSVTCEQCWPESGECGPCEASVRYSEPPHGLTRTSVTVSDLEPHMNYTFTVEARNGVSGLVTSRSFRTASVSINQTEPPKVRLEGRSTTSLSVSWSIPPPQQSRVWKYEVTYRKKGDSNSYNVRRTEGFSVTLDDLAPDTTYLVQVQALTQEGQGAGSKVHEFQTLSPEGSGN
# T2 sequence (P16070 21-169 limits assumed): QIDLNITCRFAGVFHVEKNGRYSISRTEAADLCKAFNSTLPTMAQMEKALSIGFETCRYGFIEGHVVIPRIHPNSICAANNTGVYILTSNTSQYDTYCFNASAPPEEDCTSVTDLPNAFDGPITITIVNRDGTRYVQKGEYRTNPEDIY
binder,measurement,setting,value
B1,fold recovery of phage against recovery from yeast displaying an irrelevant scFv (Y-CON),[1],> 10000 fold
same,PhAb Output/Input,[2],1e-06 ratio of output/input phage
same,PhAb Output/Input,[3],0.06 ratio of output/input phage
B2,binding result,[4],binds
same,binding result,[5],binds
B3,binding result,[4],binds
same,binding result,[5],binds
B4,binding result,[6],binds
B5,binding result,[7],binds
B6,fold difference between the IC50 of ephrin A1 against D2-1A7 and against D2-1A9,[8],9 fold
B7,binding result,[4],binds
same,binding result,[5],binds
B8,binding result,[6],binds
B9,binding result,[9],binds
B10,binding result,[10],binds
